The target in series [1] is T1, Ku70/Ku80 wild type (UniProt P12956;P13010 1-609;1-732). The series can be described thus: EMSA; 1 and 2 Ku per DNA, preference for 2; ELISA: 20 mM HEPES pH 7.5, 75 mM KCl, 10% glycerol, 0.005% Triton X-100, 2 mM DTT, room temperature, 1 h, 2 pmol DNA, 424 ng DNA-PKcs; EMSA: 20 ul, 500 fmol DNA, buffer as in earlier papers. The note with it: protein: recombinant; tags: His (Ku70); copies: 1;1; blunt.

In series [2] the target is T2, Ku70/Ku80 wild type;DNA-PKcs (human?;human (HeLa cells), UniProt P12956;P13010;P78527 1-609;1-732;1-4128, |). In words: ELISA; more than double the 30bp and 400bp recruitment (Fig 4C); ELISA: 20 mM HEPES pH 7.5, 75 mM KCl, 10% glycerol, 0.005% Triton X-100, 2 mM DTT, room temperature, 1 h, 2 pmol DNA, 424 ng DNA-PKcs; EMSA: 20 ul, 500 fmol DNA, buffer as in earlier papers. Conditions: protein: recombinant;native; tags: His (Ku70);; copies: 1;1;1; label: 5' biotin on one end; blunt. In general terms: An ELISA detects its analyte on a solid surface through an enzyme-linked reagent.

Series [3] addresses T2, Ku70/Ku80 wild type;DNA-PKcs. The series can be described thus: ELISA; ELISA: 20 mM HEPES pH 7.5, 75 mM KCl, 10% glycerol, 0.005% Triton X-100, 2 mM DTT, room temperature, 1 h, 2 pmol DNA, 424 ng DNA-PKcs; EMSA: 20 ul, 500 fmol DNA, buffer as in earlier papers. Conditions: protein: recombinant;native; tags: His (Ku70);; copies: 1;1;1; label: 5' biotin on one end; blunt.
The target in series [4] is T1, Ku70/Ku80 wild type. In words: EMSA; primarily 1:1 Ku:DNA; ELISA: 20 mM HEPES pH 7.5, 75 mM KCl, 10% glycerol, 0.005% Triton X-100, 2 mM DTT, room temperature, 1 h, 2 pmol DNA, 424 ng DNA-PKcs; EMSA: 20 ul, 500 fmol DNA, buffer as in earlier papers. Conditions: protein: recombinant; tags: His (Ku70); copies: 1;1; blunt. Background: In EMSA bound probe runs differently from free probe, usually more slowly.

T1 sequence (P12956 whole entry, chain 1 of 2): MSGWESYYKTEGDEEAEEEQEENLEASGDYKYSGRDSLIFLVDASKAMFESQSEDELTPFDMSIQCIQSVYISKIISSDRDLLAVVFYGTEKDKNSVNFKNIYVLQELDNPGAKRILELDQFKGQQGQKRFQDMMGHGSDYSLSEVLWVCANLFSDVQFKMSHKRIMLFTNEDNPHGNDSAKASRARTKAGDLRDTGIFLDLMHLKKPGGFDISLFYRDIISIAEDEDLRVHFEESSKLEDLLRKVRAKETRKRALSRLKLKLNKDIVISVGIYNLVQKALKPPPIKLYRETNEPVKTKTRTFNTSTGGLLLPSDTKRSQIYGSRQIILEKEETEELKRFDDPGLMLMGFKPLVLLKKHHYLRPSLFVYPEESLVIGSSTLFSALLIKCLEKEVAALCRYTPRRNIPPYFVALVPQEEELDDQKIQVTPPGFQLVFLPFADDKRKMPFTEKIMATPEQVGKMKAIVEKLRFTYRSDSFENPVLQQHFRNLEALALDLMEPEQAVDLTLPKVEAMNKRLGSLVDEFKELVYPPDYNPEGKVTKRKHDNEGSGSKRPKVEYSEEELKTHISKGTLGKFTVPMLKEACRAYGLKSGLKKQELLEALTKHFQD
T1 sequence (P13010 whole entry, chain 2 of 2): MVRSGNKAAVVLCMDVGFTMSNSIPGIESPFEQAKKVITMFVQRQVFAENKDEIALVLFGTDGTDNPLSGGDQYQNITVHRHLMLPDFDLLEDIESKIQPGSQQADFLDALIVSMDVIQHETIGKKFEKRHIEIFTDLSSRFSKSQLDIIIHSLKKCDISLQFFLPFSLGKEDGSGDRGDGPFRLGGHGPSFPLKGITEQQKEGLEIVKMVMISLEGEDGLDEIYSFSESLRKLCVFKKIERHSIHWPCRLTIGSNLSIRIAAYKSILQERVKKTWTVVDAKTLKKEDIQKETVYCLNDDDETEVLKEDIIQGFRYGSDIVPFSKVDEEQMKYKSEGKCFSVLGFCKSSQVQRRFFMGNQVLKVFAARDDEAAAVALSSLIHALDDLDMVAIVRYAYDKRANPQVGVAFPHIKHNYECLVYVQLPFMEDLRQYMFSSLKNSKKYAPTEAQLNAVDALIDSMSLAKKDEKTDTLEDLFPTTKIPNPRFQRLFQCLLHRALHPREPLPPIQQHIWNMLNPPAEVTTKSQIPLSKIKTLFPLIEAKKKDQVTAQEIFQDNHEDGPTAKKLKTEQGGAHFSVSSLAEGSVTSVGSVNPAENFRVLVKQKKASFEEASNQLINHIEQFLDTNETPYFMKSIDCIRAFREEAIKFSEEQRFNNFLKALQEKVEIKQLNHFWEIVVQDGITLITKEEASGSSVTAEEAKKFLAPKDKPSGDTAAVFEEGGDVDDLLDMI

B1: 60bp blunt (EMSA) (dsDNA)
DNA 1: CTTGACCAGTAGTCTAGCACGTGACGATTGCATGCGTCAAGTAAGATGCAGATACTTAAC
DNA 2: GTTAAGTATCTGCATCTTACTTGACGCATGCAATCGTCACGTGCTAGACTACTGGTCAAG
Consider B1, for which the binding result with Ku70/Ku80 wild type [1] is “binds”.

B2: 60bp blunt, biotinylated (dsDNA)
DNA 1: B1 DNA 1
DNA 2: B1 DNA 2
In the case of B2, in series [2], the binding signal is > 4 fold vs DNA-PKcs without Ku.

B3: 30bp blunt, biotinylated (dsDNA)
DNA 1: CACTTCCAACAGAGGTGACACTGCCTTCAG
DNA 2: CTGAAGGCAGTGTCACCTCTGTTGGAAGTG
For B3, in series [3], the binding signal is > 4 fold vs DNA-PKcs without Ku.

B4: 30bp blunt (EMSA) (dsDNA)
DNA 1: B3 DNA 1
DNA 2: B3 DNA 2
On to B4, for which the binding result in the series with Ku70/Ku80 wild type [4] is listed as “binds”.

The values above are taken from paper PMC4433226.
